# Source: patent publication US20230212222A1 (ANYGEN CO., LTD., priority 2020, published 2023)
# Numbered stars: 1 amine (or outer) side, 2 acyl side, 3 side chain; on linkers, the order of the positions; unused ones are H or OH. Square brackets hold non-standard residues; d marks the D form. Ends that are not written are not given here. * marks the point of attachment. DAMP‑2 = His whose imidazole is a 1,3-bis(2-cyclohexylethyl)-2,3-dihydro-1H-imidazol-4-yl group, O=C([C@H](CC1=CN(CCC2CCCCC2)CN1CCC1CCCCC1)N[*:1])[*:2]; DAMP‑3 = His whose imidazole is a 1,3-diphenethyl-2,3-dihydro-1H-imidazol-4-yl group, O=C([C@H](CC1=CN(CCc2ccccc2)CN1CCc1ccccc1)N[*:1])[*:2]; 1,2‑diphenyl = His whose imidazole is a 1,2-diphenyl-1H-imidazol-4-yl group, O=C([C@H](Cc1cn(-c2ccccc2)c(-c2ccccc2)n1)N[*:1])[*:2]; tbm = (2'-(1H-tetrazol-5-yl)-[1,1'-biphenyl]-4-yl)methyl on the histidine imidazole nitrogen, c1ccc(-c2nn[nH]n2)c(-c2ccc(C*)cc2)c1; 2‑(4-tert-butyl)phenyl = His carrying a 2-(4-tert-butylphenyl) group on the imidazole (imidazole C2), CC(C)(C)c1ccc(*)cc1; DAMP‑5 = His whose imidazole is a 3-(2-cyclohexylethyl)-2,3-dihydro-1H-imidazol-4-yl group; thiophene = His carrying a thiophen-2-yl group on the imidazole (imidazole C2), c1csc(*)c1; 1‑phenyl = His whose imidazole is a 1-phenyl-1H-imidazol-4-yl group, c1ccc(*)cc1; 2‑phenyl = His whose imidazole is a 2-phenyl-1H-imidazol-4-yl group; Biotin = O=C1N[C@H]2[C@H](CS[C@H]2CCCCC(=O)*)N1; dPhe(4-CF3) = N[C@H](Cc1ccc(C(F)(F)F)cc1)C(=O)O; 1‑(4-tert-butyl)phenyl = CC(C)(C)c1ccc(*)cc1; dPhe(4-Me) = Cc1ccc(C[C@@H](N)C(=O)O)cc1; Trt = c1ccc(C(c2ccccc2)(c2ccccc2)*)cc1; CH2(1-naphthyl) = c1ccc2c(C*)cccc2c1; Benzhydryl = c1ccc(C(c2ccccc2)*)cc1; 2‑cyclohexylethyl = C1CCC(CC*)CC1; Tos = Cc1ccc(S(=O)(=O)*)cc1; Octanoyl = CCCCCCCC(=O)*
# T1: GPR39 (G protein-coupled receptor 39) (Homo sapiens (Human), UniProt O43194 1-453)
# T1 sequence: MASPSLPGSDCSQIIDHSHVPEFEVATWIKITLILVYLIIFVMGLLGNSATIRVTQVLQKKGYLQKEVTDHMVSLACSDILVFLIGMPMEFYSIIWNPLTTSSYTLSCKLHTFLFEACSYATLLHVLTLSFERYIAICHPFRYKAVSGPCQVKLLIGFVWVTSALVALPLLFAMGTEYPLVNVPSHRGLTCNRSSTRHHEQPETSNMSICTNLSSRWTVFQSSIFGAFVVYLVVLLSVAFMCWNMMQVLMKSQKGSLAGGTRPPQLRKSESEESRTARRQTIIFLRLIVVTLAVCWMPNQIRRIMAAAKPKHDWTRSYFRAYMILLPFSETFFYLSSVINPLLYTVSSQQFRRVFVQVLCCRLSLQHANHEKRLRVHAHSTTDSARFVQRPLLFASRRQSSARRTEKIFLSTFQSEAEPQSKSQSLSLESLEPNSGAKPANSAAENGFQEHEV
# Target: T1, GPR39 (G protein-coupled receptor 39)
# Test: cell-based or functional assay
Binder,EC50 (luciferase reporter) [nM],ECmax (-fold induction over basal)
H(Trt)K(Octanoyl)FY [HKFY-1],150,20.5 -fold induction over basal
H(4‑methyltrityl)K(Octanoyl)FY [HKFY-5],1840,16 -fold induction over basal
H(Trt)K(Octanoyl)FS [HKFY-50],700,16.2 -fold induction over basal
H(Trt)K(Octanoyl)LY [HKFY-51],120,14.4 -fold induction over basal
H(Trt)FYDQQARF (not fully specified; printed as His(trt)-Phe-Tyr-Asp-Gln-Gln-Ala-Arg-Phe) [HKFY-52],56400,15.5 -fold induction over basal
H(Trt)GSK(Octanoyl)FY [HKFY-53],340,8 -fold induction over basal
Lys(Octanoyl)-Phe-Tyr [HKFY-54],25900,7.8 -fold induction over basal
K(Octanoyl)H(Trt)FY [HKFY-55],2490,16.8 -fold induction over basal
H(DAMP‑3)K(Octanoyl)FY [HKFY-6],68400,15 -fold induction over basal
H(Trt)K(caproic)FYDQQARF [HKFY-56],–,14.9 -fold induction over basal
H(2‑phenyl)K(Octanoyl)[dPhe(4-Me)]Y [HKFY-57],260,8.5 -fold induction over basal
H(1‑phenyl)K(Octanoyl)[dPhe(4-Me)]Y [HKFY-58],20,9.12 -fold induction over basal
"H(1,2‑diphenyl)K(Octanoyl)[dPhe(4-Me)]Y [HKFY-59]",550,6.76 -fold induction over basal
H(2‑(4-tert-butyl)phenyl)K(Octanoyl)[dPhe(4-Me)]Y [HKFY-60],190,28.2 -fold induction over basal
H(1‑(4-tert-butyl)phenyl)K(Octanoyl)[dPhe(4-Me)]Y [HKFY-61],20,9.88 -fold induction over basal
[dH](Benzhydryl)K(Octanoyl)[dPhe(4-Me)]Y [HKFY-62],830,28.1 -fold induction over basal
H(thiophene)K(Octanoyl)[dPhe(4-Me)]Y [HKFY-63],6,13.5 -fold induction over basal

Binder,EC50 (luciferase reporter) [nM],ECmax (-fold induction over basal)
H(4‑methoxybenzhydryl)K(Octanoyl)[dPhe(4-Me)]Y [HKFY-64],7,16 -fold induction over basal
H(4‑hydroxybenzhydryl)K(Octanoyl)[dPhe(4-Me)]Y [HKFY-65],3,18.3 -fold induction over basal
H(DAMP‑5)K(Octanoyl)FY [HKFY-7],1560,16 -fold induction over basal
H(Benzhydryl)K(Octanoyl)[dPhe(4-Me)]Y-NH2 [HKFY-66],11,20.2 -fold induction over basal
H(Benzhydryl)K(Octanoyl)[dPhe(4-Me)][Tyr(3-chloro)] [HKFY-67],43,10.2 -fold induction over basal
H(Benzhydryl)K(Octanoyl)[dPhe(4-Me)][Tyr(3-nitro)] [HKFY-68],13,10.8 -fold induction over basal
"H(Benzhydryl)K(Octanoyl)[dPhe(4-Me)][Tyr(3,5-nitro)] [HKFY-69]",15,12.2 -fold induction over basal
H(Benzhydryl)K(Octanoyl)[dPhe(4-Me)][Tyr(3-amino)] [HKFY-70],20,10.1 -fold induction over basal
Biotin-H(Benzhydryl)K(Octanoyl)[dPhe(4-Me)]Y [HKFY-72],11,10.4 -fold induction over basal
H(Tos)K(Octanoyl)[dPhe(4-Me)]Y [HKFY-75],1,15.9 -fold induction over basal
H(DAMP‑2)K(Octanoyl)FY [HKFY-8],33600,17.3 -fold induction over basal
H(Trt)K(Octanoyl)[dPhe(4-CF3)]Y [HKFY-76],7,14.2 -fold induction over basal
H(tbm)K(Octanoyl)FY (not fully specified (residue 3); printed as His(tbm)-Lys(caprylic)-d-Phe(4-CF3)-Tyr) [HKFY-77],7,11.6 -fold induction over basal
His(Benzhydryl)-Lys(Octanoyl) [HKFY-79],970,11.2 -fold induction over basal
HK(Octanoyl)FY (not fully specified (residue 1)) [HKFY-9],42700,21 -fold induction over basal
H(CH2(1-naphthyl))K(Octanoyl)FY [HKFY-10],46500,14 -fold induction over basal
H(2‑cyclohexylethyl)K(Octanoyl)FY [HKFY-11],57800,22 -fold induction over basal
